Reference: PMC6478713, “Structural insight into YcbB-mediated beta-lactam resistance in Escherichia coli” (Nature Communications, 2019)

B1: Escherichia coli YcbB without its signal peptide (residue 31 onward) (enzyme)
chain: DEPEVIPGDSPVAVSEQGEALPQAQATAIMAGIQPLPEGAAEKARTQIESQLPAGYKPVYLNQLQLLYAARDMQPMWENRDAVKAFQQQLAEVAIAGFQPQFNKWVELLTDPGVNGMARDVVLSDAMMGYLHFIANIPVKGTRWLYSSKPYALATPPLSVINQWQLALDKGQLPTFVAGLAPQHPQYAAMHESLLALLCDTKPWPQLTGKATLRPGQWSNDVPALREILQRTGMLDGGPKITLPGDDTPTDAVVSPSAVTVETAETKPMDKQTTSRSKPAPAVRAAYDNELVEAVKRFQAWQGLGADGAIGPATRDWLNVTPAQRAGVLALNIQRLRLLPTELSTGIMVNIPAYSLVYYQNGNQVLDSRVIVGRPDRKTPMMSSALNNVVVNPPWNVPPTLARKDILPKVRNDPGYLESHGYTVMRGWNSREAIDPWQVDWSTITASNLPFRFQQAPGPRNSLGRYKFNMPSSEAIYLHDTPNHNLFKRDTRALSSGCVRVNKASDLANMLLQDAGWNDKRISDALKQGDTRYVNIRQSIPVNLYYLTAFVGADGRTQYRTDIYNYDLPARSSSQIVSKAEQLIR
notes: L,D-transpeptidase YcbB (LdtD), E. coli, without its signal peptide (residues 1-30), residue 31 onward; Unlabelled form: titrant in the MST with PBP1b and the protein that was crystallised (there acylated by meropenem on Cys528); Vector named pET41b-GST; no GST on the protein is spoken of; Thrombin-cleavable tag; the purification paragraph calls the removed tag N-terminal, the cloning paragraph …
B2: Escherichia coli PBP5 from residue 30 onward (enzyme)
chain: DDLNIKTMIPGVPQIDAESYILIDYNSGKVLAEQNADVRRDPASLTKMMTSYVIGQAMKAGKFKETDLVTIGNDAWATGNPVFKGSSLMFLKPGMQVPVSQLIRGINLQSGNDACVAMADFAAGSQDAFVGLMNSYVNALGLKNTHFQTVHGLDADGQYSSARDMALIGQALIRDVPNEYSIYKEKEFTFNGIRQLNRNGLLWDNSLNVDGIKTGHTDKAGYNLVASATEGQMRLISAVMGGRTFKGREAESKKLLTWGFRFFETVNPLKVGKEFASEPVWFGDSDRASLGVDKDVYLTIPRGRMKDLKASYVLNSSELHAPLQKNQVVGTINFQLDGKTIEQRPLVVLQEIPEGNFFGKIIDYIKLMFHHWFG
notes: HRV 3C protease-cleavable tag; the purification paragraph calls the removed tag N-terminal, the cloning paragraph C-terminal; also called D,D-carboxypeptidase PBP5; source: E. coli BL21 (DE3), purified (HisTrap Ni2+, SEC Superdex 200); not shown: His8, C-terminal, cleaved

Assays:
[1] = target: T1, Escherichia coli PBP1b from residue 58 onward, styrene-maleic acid co-polymer solubilised, fluorescently … (Escherichia coli, UniProt P02919 58-844, Alexa Fluor 647 NHS Ester label (sites not given)); experiment: MST; Monolith NT.115Pico; unlabelled YcbB (1.5 nM-3.1 uM) titrated into Alexa Fluor 647-labelled SMA-solubilised PBP1b at 100 nM; Buffer C; analysed using fluorescence values; binding isotherm with adjustable Hill coefficient; settings: both partners purified
T1 construct: Held in styrene-maleic acid co-polymer particles; Thrombin-cleavable tag; the purification paragraph calls the removed tag N-terminal, the cloning paragraph C-terminal; also called SMA-solubilised PBP1b; not shown: His8, C-terminal, cleaved
T1 sequence: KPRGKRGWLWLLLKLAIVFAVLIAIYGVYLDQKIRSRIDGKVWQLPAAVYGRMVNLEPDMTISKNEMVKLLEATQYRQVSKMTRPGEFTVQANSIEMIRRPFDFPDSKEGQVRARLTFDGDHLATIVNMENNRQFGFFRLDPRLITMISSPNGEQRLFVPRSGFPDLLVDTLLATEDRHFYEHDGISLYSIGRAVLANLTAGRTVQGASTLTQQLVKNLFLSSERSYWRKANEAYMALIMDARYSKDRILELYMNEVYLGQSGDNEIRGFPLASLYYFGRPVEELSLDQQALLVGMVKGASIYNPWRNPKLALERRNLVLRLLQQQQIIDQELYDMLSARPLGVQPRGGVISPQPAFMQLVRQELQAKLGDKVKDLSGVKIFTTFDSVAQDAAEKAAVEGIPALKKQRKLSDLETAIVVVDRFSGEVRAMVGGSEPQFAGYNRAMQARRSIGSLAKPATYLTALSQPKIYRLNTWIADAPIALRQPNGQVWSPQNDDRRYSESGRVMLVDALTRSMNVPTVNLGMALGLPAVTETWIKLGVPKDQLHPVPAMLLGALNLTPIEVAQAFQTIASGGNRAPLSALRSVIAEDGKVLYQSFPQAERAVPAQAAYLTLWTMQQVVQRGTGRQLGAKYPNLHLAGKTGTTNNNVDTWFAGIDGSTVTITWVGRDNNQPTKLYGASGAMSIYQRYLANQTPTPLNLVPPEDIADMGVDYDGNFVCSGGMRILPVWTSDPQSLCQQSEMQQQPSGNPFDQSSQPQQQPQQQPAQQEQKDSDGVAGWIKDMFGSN

[2] = target: T2, Escherichia coli YcbB (residue 31 onward), fluorescently labelled with Alexa Fluor 647 (Escherichia coli, UniProt P22525 31-615, Alexa Fluor 647 NHS Ester label (sites not given)); experiment: MST; Monolith NT.115Pico; unlabelled PBP5 (120 pM-98 uM) titrated into Alexa Fluor 647-labelled YcbB at 15 nM; Buffer C; analysed using MST; binding isotherm with adjustable Hill coefficient; settings: both partners purified
T2 construct: L,D-transpeptidase YcbB (LdtD), E. coli, without its signal peptide (residues 1-30), residue 31 onward; Same construct as m1, labelled for the MST with PBP5; also called fluorescently labelled YcbB; source: E. coli BL21 (DE3), purified (HisTrap Ni2+, SEC Superdex 200), then labelled; not shown: His8, C-terminal, cleaved
T2 sequence: B1 chain

Binder	Kd [1]	Kd [2]
B1	250 ± 30 nM	–
B2	–	~2000 nM
